The DeepSol protein solubility set

Test: soluble on expression in E. coli; label from the status in PepcDB or PDB records

Soluble on expression in E. coli, not soluble:
MGSDKIHHHHHHMITPTIRGGHEVNYLVAVEGAKVGDAIAIRVERIRVLSKAASSGVDSPREGSFVGDPYVAKKCPVCNEPWPEFEVVGIGEDAIRCKKCGAPVSPFRMINGYTMVFDHEGGVGVTVDKKTAEMIAKNAWEWHALPKNSKQVPILIFAKADIVGVPSRIRPFLGQLGTIPAVDIPDSHNAGDFGYFLINAPHPYAISKEDYETKLTDGHLDVDSVREGAIVIAPVKVEGGGVYAGDAHAMEGDGEVAGHTTDVTAETTVTVEVIKGLNLEGPILLPPEEDLPPLAKPWRKDEWEKVERLAKKFGIEVEPVAPLQIIGSGPTINDAALNGFKRAAKLFGMSVEEVKNRVTITGAVEIGRLPGIVQVSMQVPLRILEKLGIYELVVKHYNLPF, YAGLSRFTLSYHNVEYKLFGYGTILNNTNFPGGSSGSAVFNKEKQLTSIYFGSLINVTTGNNRNVNLGLGQILRTYNTNNSKHS, MSNLNPCMTCGACCAFFRVSFYWAEADDAGGTIPARLTEQISPFHRCMSGTNQKNPRCIALAGTPGKNACCTIYKNRSSTCREFAMSGENGVVNEACNRARAKYGLTPL, MSLTKNKFDNRADKLGESWDLLNKEGRKIGLKHRGEPFKPGEWHSLVNASIFNYQHEILMQQRSFNKIGRPGEWDFETGGSVLASEDSLTAIKREVKEEVGLELNFSEENFVETFRNWPVFDNWYVIKADLSIKDIRIQKSELEQAKFMPFDQAIKYLSSNYLPYLLKAYKKLFGGENEGHHHHHH, MSLSNISLTTLGGVRENGKNMYIAEIGESIFVLNVGLKYPENEQLGVDVVIPNMDYLFENSDRIAGVFLTHGHADAIGALPYLLAEAKVPVFGSELTIELAKLFVKGNDAVKKFNDFHVIDENTEIDFGGTVVSFFPTTYSVPESLGIVLKTSEGSIVYTGDFKFDQTASESYATDFARLAEIGRDGVLALLSDSANADSNIQVASESEVRDEITQTIADWEGRIIVAAVSSNLSRIQQIFDAADKTGRRIVLTGFDIENIVRTAIRLKKLSLANEILLIKPKDMSRFEDHELIILETGRMGEPINGLRKMSIGRHRYVEIKDGDLVYIATAPSIAKEAFVARVENMIYQAGGVVKLITQSLHVSGHGNVRDLQLMINLLQPKYLFPVQGEYRELDAHAKAAMAVGMLPERIFIPKKGTTMAYENGDFVPAGSVSAGDILIDGNAIGDVGNVVLRDRKVLSEDGIFIVAITVNRREKKIVARARVHTRGFVYLKKSRDILRESSELINQTVEEYLQGDDFDWADLKGKVRDNLTKYLFDQTKRRPAILPVVMEAEGHHHHHH, MSKTHPPELKKYMDKEMDLKLNGNRRVSGILRGFDPFMNMVIDEAVEYQKDGGSVNLGMTVIRGNSVVIMEPKERIS

Soluble on expression in E. coli, soluble:
MTTLKLDTLSDRIKAHKNALVHIVKPPVCTERAQHYTEMYQQHLDKPIPVRRALALAHHLANRTIWIKHDELIIGNQASEVRAAPIFPEYTVSWIEKEIDDLADRPGAGFAVSEENKRVLHEVCPWWRGQTVQDRCYGMFTDEQKGLLATGIIKAEGNMTSGDAHLAVNFPLLLEKGLDGLREEVAERRSRINLTVLEDLHGEQFLKAIDIVLVAVSEHIERFAALAREMAATETRESRRDELLAMAENCDLIAHQPPQTFWQALQLCYFIQLILQIESNGHSVSFGRMDQYLYPYYRRDVELNQTLDREHAIEMLHSCWLKLLEVNKIRSGSHSKASAGSPLYQNVTIGGQNLVDGQPMDAVNPLSYAILESCGRLRSTQPNLSVRYHAGMSNDFLDACVQVIRCGFGMPAFNNDEIVIPEFIKLGIEPQDAYDYAAIGCIETAVGGKWGYRCTGMSFINFARVMLAALEGGHDATSGKVFLPQEKALSAGNFNNFDEVMDAWDTQIRYYTRKSIEIEYVVDTMLEENVHDILCSALVDDCIERAKSIKQGGAKYDWVSGLQVGIANLGNSLAAVKKLVFEQGAIGQQQLAAALADDFDGLTHEQLRQRLINGAPKYGNDDDTVDTLLARAYQTYIDELKQYHNPRYGRGPVGGNYYAGTSSISANVPFGAQTMATPDGRKAHTPLAEGASPASGTDHLGPTAVIGSVGKLPTAAILGGVLLNQKLNPATLENESDKQKLMILLRTFFEVHKGWHIQYNIVSRETLLDAKKHPDQYRDLVVRVAGYSAFFTALSPDAQDDIIARTEHML, KGMTPPKTVNFKMKGVADAAFSHEFHLGMYKCNECHTKLFAYKAGAKRFTMADMDKGKSCGACHNGKDAFSSASDCGKCHPG, ASLLARYPPEKLFQAERNFNAAQDLDVSLLEGDLVGVIKKKDPMGSQNRWLIDNGVTKGFVYSSFLKPYNPRRSHSDAS
